Laboratory results reported in patent US12502351B2, “Receptor targeting constructs and uses thereof” (Cedars-Sinai Medical Center, priority 2014, dated 2025).

Legend:
[1] = Tissue distribution in mice with no tumors; assay type: in vivo, mouse; conditions: tail vein injection
[2] = target: T1, mouse HER3 (Mus musculus, UniProt Q61526); assay: Binding of HerPBK10 to 4T1 mouse mammary tumor cells; conditions: soluble HER3 peptide as competitive inhibitor
T1 construct: endogenous in cells; host or cells: 4T1 mouse mammary tumor cells
T1 sequence (Q61526 20-1339): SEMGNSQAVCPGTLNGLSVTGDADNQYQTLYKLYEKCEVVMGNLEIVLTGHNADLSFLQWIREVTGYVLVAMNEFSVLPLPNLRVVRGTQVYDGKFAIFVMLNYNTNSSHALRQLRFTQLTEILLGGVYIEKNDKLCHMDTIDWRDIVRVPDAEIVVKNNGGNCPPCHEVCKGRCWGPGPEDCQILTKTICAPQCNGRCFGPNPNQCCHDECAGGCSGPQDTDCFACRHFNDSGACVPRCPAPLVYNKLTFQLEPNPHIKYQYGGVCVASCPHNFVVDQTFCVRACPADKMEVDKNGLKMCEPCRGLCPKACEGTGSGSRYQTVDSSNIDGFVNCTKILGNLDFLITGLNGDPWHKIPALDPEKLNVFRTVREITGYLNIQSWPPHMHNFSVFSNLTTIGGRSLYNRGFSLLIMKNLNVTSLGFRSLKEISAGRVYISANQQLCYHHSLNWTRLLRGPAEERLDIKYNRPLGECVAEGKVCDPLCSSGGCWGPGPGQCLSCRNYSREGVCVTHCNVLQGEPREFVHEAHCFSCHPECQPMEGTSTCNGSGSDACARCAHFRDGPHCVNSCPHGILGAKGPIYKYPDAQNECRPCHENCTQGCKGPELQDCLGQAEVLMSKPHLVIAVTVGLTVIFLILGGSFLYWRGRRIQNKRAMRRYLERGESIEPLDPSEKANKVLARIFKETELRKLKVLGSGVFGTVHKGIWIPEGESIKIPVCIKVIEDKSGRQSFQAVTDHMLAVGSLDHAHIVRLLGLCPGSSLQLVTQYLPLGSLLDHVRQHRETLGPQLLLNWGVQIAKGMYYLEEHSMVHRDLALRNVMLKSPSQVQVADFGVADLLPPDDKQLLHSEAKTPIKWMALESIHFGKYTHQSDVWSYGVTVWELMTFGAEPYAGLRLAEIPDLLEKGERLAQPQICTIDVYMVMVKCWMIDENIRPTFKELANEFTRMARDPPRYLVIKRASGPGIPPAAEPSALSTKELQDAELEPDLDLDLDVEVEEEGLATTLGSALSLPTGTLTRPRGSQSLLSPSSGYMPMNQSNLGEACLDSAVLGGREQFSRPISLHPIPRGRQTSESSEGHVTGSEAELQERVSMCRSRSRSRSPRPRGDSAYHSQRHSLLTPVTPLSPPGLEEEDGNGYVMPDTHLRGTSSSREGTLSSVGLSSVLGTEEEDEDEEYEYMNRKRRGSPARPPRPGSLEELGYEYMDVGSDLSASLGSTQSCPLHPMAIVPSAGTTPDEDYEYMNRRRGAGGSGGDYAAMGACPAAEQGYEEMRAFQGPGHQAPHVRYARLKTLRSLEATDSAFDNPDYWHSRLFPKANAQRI
Source text: FIGS. 13A-13C show the results that HerPBK10 binds to mouse HER3. […] Blue residues indicate amino acid differences. […] N=3. *, p<0.05 compared to HerPBK10 alone

[3] = test system: human cardiosphere-derived cells (CDCs); assay: Human CDC viability; conditions: 2 or 5 days exposure
[4] = target: T2, HER3 (human ErbB3 extracellular domain) (Homo sapiens, UniProt P21860); assay: ELISA of HerPBK10 binding to immobilized HER3
T2 construct: an immobilized peptide containing the extracellular domain of human HER3; purchased Prospec
T2 sequence (P21860 20-643 limits assumed): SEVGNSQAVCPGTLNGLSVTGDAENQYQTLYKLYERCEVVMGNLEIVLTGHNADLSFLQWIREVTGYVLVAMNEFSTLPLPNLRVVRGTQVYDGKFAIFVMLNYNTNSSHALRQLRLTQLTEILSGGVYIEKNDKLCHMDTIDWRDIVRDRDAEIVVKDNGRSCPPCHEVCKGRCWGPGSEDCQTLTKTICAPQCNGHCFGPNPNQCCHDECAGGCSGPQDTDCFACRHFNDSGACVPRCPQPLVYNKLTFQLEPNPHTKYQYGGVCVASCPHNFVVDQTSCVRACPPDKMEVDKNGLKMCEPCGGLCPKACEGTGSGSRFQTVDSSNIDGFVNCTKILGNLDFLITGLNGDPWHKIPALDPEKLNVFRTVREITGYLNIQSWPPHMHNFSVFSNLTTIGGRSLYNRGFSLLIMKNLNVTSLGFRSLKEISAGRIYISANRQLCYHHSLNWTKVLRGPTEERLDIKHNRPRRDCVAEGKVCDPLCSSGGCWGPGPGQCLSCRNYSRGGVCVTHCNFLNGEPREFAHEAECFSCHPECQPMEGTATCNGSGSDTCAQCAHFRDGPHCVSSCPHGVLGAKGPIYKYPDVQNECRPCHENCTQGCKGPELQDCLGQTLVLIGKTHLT
Source text: (§1) FIGS. 12A-12C is a group of graphs showing HerPBK10 binds to HER3 and is not inhibited by patient serum. […] Un: no HerPBK10. […] Control samples were bound in bovine serum and receptor-binding verified by competitive inhibition with recombinant heregulin ligand (+Her). N=3. *, p<0.05 compared to control (−Her: no competitive inhibitor).

[5] = repeat dosing, immune-competent mice; cited from earlier work
[6] = target: T3, HER3 (Homo sapiens, UniProt P21860); conditions: cells in culture; cited from earlier work
T3 construct: endogenous in cells
T3 sequence (P21860 20-1342): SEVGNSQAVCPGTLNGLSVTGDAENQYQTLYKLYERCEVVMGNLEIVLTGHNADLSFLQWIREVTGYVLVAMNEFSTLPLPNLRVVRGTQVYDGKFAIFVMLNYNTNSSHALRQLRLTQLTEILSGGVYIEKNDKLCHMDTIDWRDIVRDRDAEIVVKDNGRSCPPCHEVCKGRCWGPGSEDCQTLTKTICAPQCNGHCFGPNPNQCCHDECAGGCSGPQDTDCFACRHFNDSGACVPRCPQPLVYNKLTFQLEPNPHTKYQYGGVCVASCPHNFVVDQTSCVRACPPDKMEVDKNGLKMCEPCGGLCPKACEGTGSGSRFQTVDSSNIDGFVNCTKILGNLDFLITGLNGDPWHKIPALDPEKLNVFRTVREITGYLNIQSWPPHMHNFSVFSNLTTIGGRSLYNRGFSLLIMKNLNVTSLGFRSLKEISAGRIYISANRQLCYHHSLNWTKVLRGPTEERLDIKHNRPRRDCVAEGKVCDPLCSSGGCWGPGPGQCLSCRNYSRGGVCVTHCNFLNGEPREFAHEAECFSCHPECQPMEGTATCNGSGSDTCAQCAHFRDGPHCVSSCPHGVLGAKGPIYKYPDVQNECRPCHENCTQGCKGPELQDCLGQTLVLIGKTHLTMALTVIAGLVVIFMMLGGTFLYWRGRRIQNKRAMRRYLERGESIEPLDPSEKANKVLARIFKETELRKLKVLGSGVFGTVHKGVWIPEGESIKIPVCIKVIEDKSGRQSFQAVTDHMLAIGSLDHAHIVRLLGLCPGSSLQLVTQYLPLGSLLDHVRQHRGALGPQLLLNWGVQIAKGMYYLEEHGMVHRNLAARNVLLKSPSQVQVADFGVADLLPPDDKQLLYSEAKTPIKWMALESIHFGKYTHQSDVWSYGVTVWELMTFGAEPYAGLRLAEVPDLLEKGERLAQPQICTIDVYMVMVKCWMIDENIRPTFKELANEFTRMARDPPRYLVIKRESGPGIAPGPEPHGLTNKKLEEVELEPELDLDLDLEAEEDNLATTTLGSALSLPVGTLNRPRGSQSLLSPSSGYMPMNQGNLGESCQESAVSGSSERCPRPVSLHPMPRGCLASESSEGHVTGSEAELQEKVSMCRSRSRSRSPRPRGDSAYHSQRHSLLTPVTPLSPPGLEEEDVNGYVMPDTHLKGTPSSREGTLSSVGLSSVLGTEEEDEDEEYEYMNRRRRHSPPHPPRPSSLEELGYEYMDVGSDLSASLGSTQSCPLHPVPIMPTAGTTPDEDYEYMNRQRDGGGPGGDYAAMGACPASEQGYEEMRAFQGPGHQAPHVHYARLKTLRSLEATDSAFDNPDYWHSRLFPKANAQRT

[7] = target: T3, HER3; assay: ELISA of HerPBK10 binding to HER2+ cells with competitive inhibitors or sera
Source text: as §1

[8] = test system: MDA-MB-435 cells; assay: Cy3-labeled oligonucleotide delivery, confocal immunofluorescence; assay type: cell-based, human; conditions: Cy3-labeled oligonucleotide 50 pmol, 1 h at 37° C.
Method: HerPBK10 transports a labeled oligonucleotide in MDA-MB-435 cells. To determine whether HerPBK10 can mediate single-stranded oligonucleotide delivery, a Cy3-labeled oligonucleotide (50 pmol) was incubated with HerPBK10 (5 μg) or Lipofectamine 2000 (Invitrogen, Carlsbad, CA, USA), a commercial transfection reagent as a comparative control, in 0.1 M HEPES/Optimem I (Invitrogen; Carlsbad, CA, USA) for 20 minutes at RT. The resulting mixture was added to MDA-MB-435 cells, which express HER, and incubated for 1 h at 37° C. Cells were fixed in 4% PFA for 15′ at RT and processed for immunofluorescence against HerPBK10. Cells were counterstained with DAPI to identify nuclei. Images were acquired using a Leica SP2 laser scanning confocal microscope.

[9] = test system: HER2+ tumors; conditions: cited from earlier work

Row | Molecule | brain delivery in mice without tumors [1] | binding to mouse HER3+ cells with HER3 peptide [2] | CDC viability [3] | binding to immobilized HER3 [4] | binding to immobilized HER3 with HER3 block ([4]; pre-incubation with soluble HER3 peptide) | neutralizing antibody formation [5] | receptor binding with polyclonal antibodies against whole adenovirus [6] | binding with HER4 peptide or betacellulin ([7]; betacellulin 10 μg/mL) | binding to cellular HER3 with pertuzumab (Pz) ([7]; heterodimerization-inhibiting antibody) | binding to HER2+ cells in patient serum ([7]; sera from HER2+ patients and age-matched controls) | binding to human HER3+ cells with HER3 peptide ([7]; soluble HER3 peptide as competitive inhibitor) | oligonucleotide transport into cells [8] | dose for tumor growth ablation compared to doxorubicin ([9]; HER2+ tumors in mice) | effect on heart and liver tissue ([9]; mouse, in vivo) | immunogenicity ([9]; mouse, in vivo)
1 | PBK10: recombinant protein derived from the adenovirus capsid penton base with decalysine | no detectable brain delivery |  |  |  |  |  |  |  |  |  |  |  |  |  | 
2 | HerPBK10: receptor binding region of heregulin-α (aa 35-239) fused to adenovirus penton base with decalysine tail (protein) LPPRLKEMKSQESAAGSKLVLRCETSSEYSSLRFKWFKNGNELNRKNKPQNIKIQKKPGKSELRINKASLADSGEYMCKVISKLGNDSASANITIVESNEIITGMPASTEGAYVSSESPIRISVSTEGANTSSSTSTSTTGTSHLVKCAEKEKTFCVNGGECFMVKDLSNPSRYLCKCQPGFTGARCTENVPMKVQNQEKAEELYMRRAAMYEEGPPPSYESVVSAAPVAAALGSPFDAPLDPPFVPPRYLRPTGGRNSIRYSELAPLFDTTRVYLVDNKSTDVASLNYQNDHSNFLTTVIQNNDYSPGEASTQTINLDDRSHWGGDLKTILHTNMPNVNEFMFTNKFKARVMVSRLPTKDNQVELKYEWVEFTLPEGNYSETMTIDLMNNAIVEHYLKVGRQNGVLESDIGVKFDTRNFRLGFDPVTGLVMPGVYTNEAFHPDIILLPGCGVDFTHSRLSNLLGIRKRQPFQEGFRITYDDLEGGNIPALLDVDAYQASLKDDTEQGGGGAGGSNSSGSGAEENSNAAAAAMQPVEDMNDHAIRGDTFATRAEEKRAEAEAAAEAAAPAAQPEVEKPQKKPVIKPLTEDSKKRSYNLISNDSTFTQYRSWYLAYNYGDPQTGIRSWTLLCTPDVTCGSEQVYWSLPDMMQDPVTFRSTRQISNFPVVGAELLPVHSKSFYNDQAVYSQLIRQFTSLTHVFNRFPENQILARPPAPTITTVSENVPALTDHGTLPLRNSIGGVQRVTITDARRRTCPYVYKALGIVSPRVLSSRTFKKKKKKKKKK | show brain localization | inhibits binding | no toxic or growth promoting effect on tumor cells or CDCs | bind to an immobilized peptide containing the extracellular domain of human HER3 | inhibited by pre-adsorption of HerPBK10 with free HER3 peptide | do not produce detectable neutralizing antibody formation against the protein | do not prevent receptor binding to cells in culture | not inhibited by a HER4 peptide or betacellulin | does not prevent HerPBK10 binding to cellular HER3 | do not prevent HerPBK10 binding to HER2+ cells in culture | inhibits binding | colocalized with the oligonucleotide during binding and uptake | > 10 × lower dose | sparing heart and liver tissue | no detectable immunogenicity
